Laboratory results from doi:10.1101/2020.06.18.159665 (bioRxiv, 2020).
Where “and” joins values, the source holds several entries; their conditions need not be identical. Identical values can stand only once.

Columns and labels:
[1] = target: biotinylated 6X-His-GSK3β (human, UniProt P49841 1-420, biotin (site not stated)); test: BLI
[2] = target: N- and C-terminal double His-tagged GSK3β (His-GSK3β-His) (human, UniProt P49841 1-420); test: SPR
[3] = target: 6X-HisGSK3β purchased from Signalchem (G09-10H-05) (human, UniProt P49841 1-420); test: MST
6X-HisGSK3β purchased from Signalchem (G09-10H-05), sequence (P49841 whole entry): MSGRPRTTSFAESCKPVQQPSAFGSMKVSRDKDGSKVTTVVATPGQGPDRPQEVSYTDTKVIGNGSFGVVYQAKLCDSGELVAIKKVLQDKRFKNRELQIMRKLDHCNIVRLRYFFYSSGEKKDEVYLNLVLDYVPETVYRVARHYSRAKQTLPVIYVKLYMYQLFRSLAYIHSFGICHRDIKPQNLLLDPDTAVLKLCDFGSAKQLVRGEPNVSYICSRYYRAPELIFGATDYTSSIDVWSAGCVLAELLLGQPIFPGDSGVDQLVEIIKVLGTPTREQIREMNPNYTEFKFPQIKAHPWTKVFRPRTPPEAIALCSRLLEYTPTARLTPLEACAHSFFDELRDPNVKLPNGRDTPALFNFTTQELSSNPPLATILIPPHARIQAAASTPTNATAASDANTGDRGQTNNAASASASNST

biotinylated 6X-His-GSK3β, sequence (P49841 whole entry): as above
N- and C-terminal double His-tagged GSK3β (His-GSK3β-His), sequence (P49841 whole entry): as above

Row | Binder | Kd [1] | Kd [2] | Kd [3] [µM] | koff [2] [s⁻¹] | kon [2] [M⁻¹ s⁻¹]
1 | DPHRLLQQLVLSGNLIKEAVRRLHS [FRATide] | 3.6 µM and 3.8 µM | 1.9 µM and 3.2 µM | – | – | –
2 | VEPQKFAEELIHRLEAVQ [AxinGID] | 63.6 µM | – | – | – | –
3 | PEVPPTPPGSHSAFTSSFSFIRLSLGSAGERGEAEGCPPSREAE (peptide, UniProt Q9NRI5 193-236, looked up) [hDISCtide, 44-mer peptide derived from human DISC1 (residues 193-236)] | – | – | 5.7 | 0.000249 | 495 ± 31.4
